Source: paper doi:10.1101/462036 (bioRxiv, 2018)

Target: the molecule itself
Test: SEC

B1: RIG-5 IG1 (purified, hexahistidine tag) (domain or fragment)
chain: GAPPTIQQPSMSSAVALLGQDVDFTCIVNDLGSHMVAFVKADSPPRLLSFDEKVFRRRNKYELKPRIGDLHNEWVLTIKNVQESDRGNYSCQINTEPITLSTGELDVKVP
modifications: one N-linked glycan per monomer
- stoichiometry N: 2
